Target: cell surface TrkA on the human erythroleukemic cell line TF-1 (human), P04629
Assay: cell-based or functional assay

Chain of cell surface TrkA on the human erythroleukemic cell line TF-1 (human), P04629 (P04629 33-796): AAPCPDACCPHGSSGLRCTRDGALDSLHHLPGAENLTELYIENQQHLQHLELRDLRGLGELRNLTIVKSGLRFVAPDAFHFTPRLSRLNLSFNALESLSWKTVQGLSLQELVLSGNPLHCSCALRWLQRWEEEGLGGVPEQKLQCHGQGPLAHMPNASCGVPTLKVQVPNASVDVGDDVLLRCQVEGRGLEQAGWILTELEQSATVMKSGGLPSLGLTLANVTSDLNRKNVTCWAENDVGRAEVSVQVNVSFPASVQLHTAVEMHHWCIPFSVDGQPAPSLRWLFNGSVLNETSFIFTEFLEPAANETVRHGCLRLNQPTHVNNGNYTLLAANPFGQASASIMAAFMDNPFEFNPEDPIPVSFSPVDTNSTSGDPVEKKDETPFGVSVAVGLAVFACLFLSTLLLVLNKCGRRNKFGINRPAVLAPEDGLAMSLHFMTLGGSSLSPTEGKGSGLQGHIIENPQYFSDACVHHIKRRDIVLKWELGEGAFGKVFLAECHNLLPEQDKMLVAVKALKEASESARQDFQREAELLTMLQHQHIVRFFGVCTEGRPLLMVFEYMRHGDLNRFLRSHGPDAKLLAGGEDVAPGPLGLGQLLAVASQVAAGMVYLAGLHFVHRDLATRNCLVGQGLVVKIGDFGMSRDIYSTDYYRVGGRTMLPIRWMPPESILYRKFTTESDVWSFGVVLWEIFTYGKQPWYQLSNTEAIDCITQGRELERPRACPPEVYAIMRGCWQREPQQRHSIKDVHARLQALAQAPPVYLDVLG

B1: MNAC13 mouse antibody (antibody, mouse IgG1, kappa)
heavy: EVKLVESGGGLVQPGGSLKLSCAASGFTFSTYTMSWARQTPEKRLEWVAYISKGGGSTYYPDTVKGRFTISRDNAKNTLYLQMSSLKSEDTALYYCARGAMYGNDFFYPMDYWGQGTSVTVSSKTTPPSVYPLAPGSAAQTNSMVTLGCLVKGYFPEPVTVTWNSGSLSSGVHTFPAVLESDLYTLSSSVTVPSSPRPSETVTCNVAHPASSTKVDKKIVPRDCGCKPCICTVPEVSSVFIFPPKPKDVLTITLTPKVTCVVVDISKDDPEVQFSWFVDDVEVHTAQTQPREEQFNSTFRSVSELPIMHQDWLNGKEFKCRVNSAAFPAPIEKTISKTKGRPKAPQVYTIPPPKEQMAKDKVSLTCMITDFFPEDITVEWQWNGQPAENYKNTQPIMNTNGSYFVYSKLNVQKSNWEAGNTFTCSVLHEGLHNHHTEKSLSHSPGK
light: QIVLTQSPAIMSASLGEEITLTCSASSSVSYMHWYQQKSGTSPKLLIYTTSNLASGVPSRFSGSGSGTFYSLTISSVEAEDAADYYCHQWSSYPWTFGGGTKLEIKADAAPTVSIFPPSSEQLTSGGASVVCFLNNFYPKDINVKWKIDGSERQNGVLNSWTDQDSKDSTYSMSSTLTLTKDEYERHNSYTCEATHKTSTSPIVKSFNRNEC
  TF-1 cell proliferation assay IC50 (NGF-induced): 0.23 µg/mL

Source: patent US20170218087A1
